Results published in patent publication US20230270823A1 (WUXI BIOLOGICS IRELAND, published 2023).
Positions count from the first letter of the chain named.

T1: IL-15Rβ/γ chain (IL-2Rβ and common gamma chain) on human CD8+ T cells and NK cells (human, UniProt P14784 27-551; P31785 23-369)
T1 sequence (looked up) 1: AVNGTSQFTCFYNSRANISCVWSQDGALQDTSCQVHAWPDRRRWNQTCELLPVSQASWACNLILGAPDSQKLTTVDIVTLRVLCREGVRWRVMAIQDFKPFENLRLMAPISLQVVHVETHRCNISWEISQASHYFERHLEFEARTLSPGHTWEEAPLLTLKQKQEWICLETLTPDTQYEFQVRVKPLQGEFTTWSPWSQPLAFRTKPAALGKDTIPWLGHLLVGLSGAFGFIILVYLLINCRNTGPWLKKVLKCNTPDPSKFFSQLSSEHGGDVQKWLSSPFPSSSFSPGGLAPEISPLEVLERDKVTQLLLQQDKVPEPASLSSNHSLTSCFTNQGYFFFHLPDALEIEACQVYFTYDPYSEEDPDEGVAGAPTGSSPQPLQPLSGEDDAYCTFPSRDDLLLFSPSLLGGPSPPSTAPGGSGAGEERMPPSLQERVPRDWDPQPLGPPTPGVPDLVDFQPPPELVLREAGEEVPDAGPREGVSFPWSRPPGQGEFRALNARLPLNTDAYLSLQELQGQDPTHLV
T1 sequence (looked up) 2: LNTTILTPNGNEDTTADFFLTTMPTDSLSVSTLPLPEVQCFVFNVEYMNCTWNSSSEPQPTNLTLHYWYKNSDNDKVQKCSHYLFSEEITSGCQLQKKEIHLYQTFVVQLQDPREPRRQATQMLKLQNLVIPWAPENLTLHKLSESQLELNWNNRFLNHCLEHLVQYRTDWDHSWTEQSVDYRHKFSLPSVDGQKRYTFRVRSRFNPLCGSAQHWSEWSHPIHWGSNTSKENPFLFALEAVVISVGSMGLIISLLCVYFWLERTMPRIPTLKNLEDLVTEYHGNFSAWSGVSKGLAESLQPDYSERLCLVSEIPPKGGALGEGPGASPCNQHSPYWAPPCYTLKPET

B1: W327151-TXU1.P1-V0001.uIgG1v805 (Fc fusion)
chain 1: NWVNVISADLKKIEDLIQSMHIDATLYTESDVHPSCKVTAMKCFLLELQVISLESGDASIHDTVENLIILANNSLSSNGNVTESGCKECEELEEKNIKEFLQSFVHIVQMFINTSGGGGSEPKSSDKTHTCPPCPAPELLRGPSVFLFPPKPKDTLYITREPEVTCVVVDVSHEDPEVKFNWYVDGVEVHNAKTKPREEQYNSTYRVVSVLTVLHQDWLNGKEYKCKVSNKARPAPIEKTISKAKGQPREPQVYTLPPCREEMTKNQVSLWCLVKGFYPSDIAVEWESNGQPENNYKTTPPVLDSDGSFFLYSKLTVDKSRWQQGNVFSCSVMHEALHNHYTQKSLSLSPG
chain 2: ITCPPPMSVEHADIWVKSYSLYSRERYICNSGFKRKAGTSSLTECVLNKATNVAHWTTPSLKCIRGGGGSEPKSSDKTHTCPPCPAPELLRGPSVFLFPPKPKDTLYITREPEVTCVVVDVSHEDPEVKFNWYVDGVEVHNAKTKPREEQYNSTYRVVSVLTVLHQDWLNGKEYKCKVSNKARPAPIEKTISKAKGQPREPQVCTLPPSREEMTKNQVSLSCAVKGFYPSDIAVEWESNGQPENNYKTTPPVLDSDGSFFLVSKLTVDKSRWQQGNVFSCSVMHEALHNHYTQKSLSLSPG
B2: W327151-TXU1.P1-V0002.uIgG1v805 (Fc fusion)
chain 1: B1 chain 1 with A8D, D9A
chain 2: B1 chain 2
B3: W327151-TXU1.P1-V0004.uIgG1v805 (Fc fusion)
chain 1: B1 chain 1 with A8D, D9L, L10K, K11A
chain 2: B1 chain 2
B4: W327151-TXU1.P1-V0005.uIgG1v805 (Fc fusion)
chain 1: NWVNVISDLKKIEDLIQSMHIDATLYTESDVHPSCKVTAMKCFLLELQVISLESGDASIHDTVEANLIILANNSLSSNGNVTESGCKECEELEEKNIKEFLQSFVHIVQMFINTSGGGGSEPKSSDKTHTCPPCPAPELLRGPSVFLFPPKPKDTLYITREPEVTCVVVDVSHEDPEVKFNWYVDGVEVHNAKTKPREEQYNSTYRVVSVLTVLHQDWLNGKEYKCKVSNKARPAPIEKTISKAKGQPREPQVYTLPPCREEMTKNQVSLWCLVKGFYPSDIAVEWESNGQPENNYKTTPPVLDSDGSFFLYSKLTVDKSRWQQGNVFSCSVMHEALHNHYTQKSLSLSPG
chain 2: B1 chain 2
B5: W327151-TXU1.P1-V0006.uIgG1v805 (Fc fusion)
chain 1: B4 chain 1 with A65N, N66A
chain 2: B1 chain 2

Columns and labels:
[1] = target: T1, IL-15Rβ/γ chain (IL-2Rβ and common …); test: cell-based or functional assay
[2] = target: IL-15Rβ/γ chain (IL-2Rβ and common gamma chain) on cyno CD8+ T cells and NK cells (cynomolgus monkey); test: cell-based or functional assay

Row | Binder | EC50, % Ki67 expression, human CD8+ T cells [1] | EC50, % Ki67 expression, human NK cells [1] | Fold reduced (EC50, % Ki67), human CD8+ T cells [1] | Fold reduced (EC50, % Ki67), human NK cells [1] | EC50, % Ki67 expression, cyno donor 1 CD8+ T cells [2] | EC50, % Ki67 expression, cyno donor 1 NK cells [2] | Fold reduced (EC50, % Ki67), cyno donor 1 CD8+ T cells [2] | Fold reduced (EC50, % Ki67), cyno donor 1 NK cells [2] | EC50, % Ki67 expression, cyno donor 2 CD8+ T cells [2] | EC50, % Ki67 expression, cyno donor 2 NK cells [2] | Fold reduced (EC50, % Ki67), cyno donor 2 CD8+ T cells [2] | Fold reduced (EC50, % Ki67), cyno donor 2 NK cells [2]
1 | B1 | 0.338 µM | 0.0292 µM | 1840 fold | 1390 fold | 0.0292 µM | 0.0656 µM | 325 fold | 729 fold | – | – | – | –
2 | B2 | 0.174 µM | 0.0191 µM | 947 fold | 911 fold | – | – | – | – | – | – | – | –
3 | B3 | 0.0225 µM | 0.00672 µM | 122 fold | 320 fold | 0.00337 µM | 0.0103 µM | 37 fold | 115 fold | – | – | – | –
4 | B4 | 0.352 µM | 0.106 µM | 1910 fold | 5030 fold | – | – | – | – | 0.1 µM | 0.0263 µM | 5890 fold | 3290 fold
5 | B5 | 0.0135 µM | 0.00158 µM | 73.5 fold | 75.1 fold | – | – | – | – | 0.00259 µM | 0.00104 µM | 153 fold | 130 fold
